Experimental data: the Immune Epitope Database (IEDB)

Legend:
HLA-B*15:01 = assay: IEDB peptide-MHC binding, purified MHC/direct/fluorescence; filed as Kd, often an IC50 or EC50 that approximates it; ≥ and ≤ were set here for values at or beyond the usual limits of such assays
HLA-B*58:01 = assay: as above; details: source organism: Pasteurella multocida
HLA-A*69:01 = assay: as above
HLA-A*03:01 [1] = assay: as above; details: source organism: Pasteurella multocida
HLA-A*02:01 [2] = assay: IEDB peptide-MHC binding, purified MHC/competitive/fluorescence; ≥ and ≤ were set here for values at or beyond the usual limits of such assays
HLA-A*32:01 = assay: IEDB peptide-MHC binding, purified MHC/competitive/radioactivity; filed as Kd, often an IC50 or EC50 that approximates it; ≥ and ≤ were set here for values at or beyond the usual limits of such assays
HLA-A*02:01 [3] = assay: IEDB peptide-MHC binding, purified MHC/direct/fluorescence; filed as Kd, often an IC50 or EC50 that approximates it; ≥ and ≤ were set here for values at or beyond the usual limits of such assays
HLA-A*29:02 = assay: IEDB peptide-MHC binding, purified MHC/competitive/radioactivity; filed as Kd, often an IC50 or EC50 that approximates it; ≥ and ≤ were set here for values at or beyond the usual limits of such assays
HLA-A*01:01 = assay: as above
HLA-A*30:02 = assay: as above
HLA-A*23:01 = assay: as above
HLA-A*26:01 = assay: as above
HLA-A*24:02 = assay: as above
HLA-B*07:02 = assay: IEDB peptide-MHC binding, purified MHC/direct/fluorescence; filed as Kd, often an IC50 or EC50 that approximates it; ≥ and ≤ were set here for values at or beyond the usual limits of such assays
HLA-A*11:01 [4] = assay: as above; details: source organism: SARS-CoV1
HLA-A*11:01 [5] = assay: IEDB peptide-MHC binding, purified MHC/competitive/radioactivity; filed as Kd, often an IC50 or EC50 that approximates it; ≥ and ≤ were set here for values at or beyond the usual limits of such assays; details: source organism: SARS coronavirus Tor2
HLA-A*03:01 [6] = assay: as above; details: source organism: SARS coronavirus Tor2
HLA-A*31:01 = assay: as above; details: source organism: SARS coronavirus Tor2
HLA-A*68:01 = assay: as above; details: source organism: SARS coronavirus Tor2
HLA-A*33:01 = assay: as above; details: source organism: SARS coronavirus Tor2
[7] = source organism: Pasteurella multocida
[8] = source organism: Vaccinia virus Copenhagen
[9] = source organism: Dengue virus 3 Martinique/1243/1999
[10] = source organism: Rickettsia conorii
[11] = source organism: Vaccinia virus WR
[12] = source organism: Zaire ebolavirus
[13] = source organism: Sudan ebolavirus
[14] = source organism: SARS coronavirus Tor2
[15] = source organism: Camelpox virus M-96
[16] = source organism: Lassa virus Josiah
[17] = source organism: Dengue virus 1 Singapore/S275/1990
[18] = source organism: Influenza A virus (A/Wilson-Smith/1933(H1N1))
[19] = source organism: Mammarenavirus machupoense
[20] = source organism: Haemophilus influenzae
[21] = source organism: Vibrio vulnificus YJ016

ILYVSCNPA
Kd (HLA-B*15:01; [7]): 748 nM | Kd (HLA-B*58:01): 572 nM | Kd (HLA-A*69:01; [7]): 572 nM | Kd (HLA-A*03:01 [1]): 402 nM

SNAKCIEYV
IC50 (HLA-A*02:01 [2]; [8]): 53600 nM

GTFKKSGAI
Kd (HLA-A*32:01; [9]): 4930 nM

YFSDVSAPV
Kd (HLA-B*15:01; [10]): 704 nM | Kd (HLA-A*69:01; [10]): 41 nM | Kd (HLA-A*02:01 [3]; [10]): 27.9 nM

LMINNMHSI
Kd (HLA-A*32:01; [11]): 13800 nM

VNPGTYVYF
IC50 (HLA-A*02:01 [2]; source organism: Variola virus): ≥ 186000 nM

RVRFFFPSL
IC50 (HLA-A*02:01 [2]; source organism: Homo sapiens): ≥ 200000 nM

FTNAGIVAY
Kd (HLA-A*32:01; [11]): 149 nM

LAKLTEAIT
IC50 (HLA-A*02:01 [2]; [12]): 68400 nM

FLLRRWGGT
IC50 (HLA-A*02:01 [2]; [13]): 2020 nM

MLNYVDYNI
Kd (HLA-A*32:01; [11]): 1.59 nM

TPSGTWLTY
Kd (HLA-A*29:02; [14]): 55.5 nM | Kd (HLA-A*01:01; [14]): ≥ 79400 nM | Kd (HLA-A*30:02; [14]): 11800 nM | Kd (HLA-A*23:01; [14]): ≥ 77800 nM | Kd (HLA-A*26:01; [14]): 18600 nM | Kd (HLA-A*24:02; [14]): ≥ 77600 nM | Kd (HLA-B*07:02; source organism: SARS-CoV1): 7020 nM | Kd (HLA-A*11:01 [4]): 4570 nM

TLVGVVVST
IC50 (HLA-A*02:01 [2]; source organism: Vaccinia virus): 55400 nM

DLAAGVDVV
Kd (HLA-A*69:01; [10]): 1460 nM | Kd (HLA-A*02:01 [3]; [10]): 3240 nM

NCSSISIKL
IC50 (HLA-A*02:01 [2]; [8]): ≥ 437000 nM

DLYDYITRI
Kd (HLA-A*69:01; [15]): 35.3 nM | Kd (HLA-A*02:01 [3]; [15]): 101 nM

ELDHLGLDD
IC50 (HLA-A*02:01 [2]; [12]): ≥ 513000 nM

QFLLQLNET
IC50 (HLA-A*02:01 [2]; [12]): 16100 nM

ITQFETYQL
Kd (HLA-A*32:01; [9]): 1630 nM

AIIAIVFVF
Kd (HLA-A*32:01; [11]): 14100 nM

HTLSIHDGY
Kd (HLA-A*29:02; [14]): 1.79 nM | Kd (HLA-A*01:01; [14]): 1500 nM | Kd (HLA-A*30:02; [14]): 0.411 nM | Kd (HLA-A*23:01; [14]): ≥ 77800 nM | Kd (HLA-A*26:01; [14]): 16 nM | Kd (HLA-A*24:02; [14]): ≥ 77600 nM

TAIAGAWENG
Kd (HLA-A*32:01; [9]): ≥ 60500 nM

QLLLMRTSW
Kd (HLA-A*32:01; [9]): 10.4 nM

KSTDFLDPA
IC50 (HLA-A*02:01 [2]; [12]): 5050 nM

ITYEKSNNI
Kd (HLA-A*32:01; [11]): 17.5 nM

EFSSNVANY
Kd (HLA-A*29:02; [14]): 703 nM | Kd (HLA-A*01:01; [14]): 11200 nM | Kd (HLA-A*30:02; [14]): 828 nM | Kd (HLA-A*23:01; [14]): ≥ 77800 nM | Kd (HLA-A*26:01; [14]): 2900 nM | Kd (HLA-A*24:02; [14]): ≥ 32200 nM

HTILYNNTI
Kd (HLA-A*32:01; [11]): 1.88 nM

TVATSRTLSY
Kd (HLA-A*29:02; [14]): 100 nM | Kd (HLA-A*01:01; [14]): 341 nM | Kd (HLA-A*30:02; [14]): 822 nM | Kd (HLA-A*23:01; [14]): ≥ 70000 nM | Kd (HLA-A*26:01; [14]): 77.9 nM | Kd (HLA-A*24:02; [14]): ≥ 70300 nM

TGPCAGDFA
IC50 (HLA-A*02:01 [2]; [12]): ≥ 112000 nM

VYSDVETPHL
Kd (HLA-A*29:02; [14]): 589 nM | Kd (HLA-A*01:01; [14]): 303 nM | Kd (HLA-A*30:02; [14]): 16100 nM | Kd (HLA-A*23:01; [14]): 163 nM | Kd (HLA-A*26:01; [14]): ≥ 69700 nM | Kd (HLA-A*24:02; [14]): 245 nM

KTIFLSEPY
Kd (HLA-A*32:01; [11]): 2.9 nM

LDISEATQV
IC50 (HLA-A*02:01 [2]; [12]): ≥ 72600 nM

KCWLVSNGSY
Kd (HLA-A*29:02; [16]): 1530 nM | Kd (HLA-A*01:01; [16]): 11500 nM | Kd (HLA-A*30:02; [16]): 11.4 nM | Kd (HLA-A*23:01; [16]): ≥ 70000 nM | Kd (HLA-A*26:01; [16]): ≥ 69700 nM | Kd (HLA-A*24:02; [16]): ≥ 70300 nM

KGEDGCWYGM
Kd (HLA-A*32:01; [17]): 1880 nM

KLDISEATQ
IC50 (HLA-A*02:01 [2]; [12]): ≥ 96700 nM

DQHGRMNYYW
Kd (HLA-A*29:02; [18]): 2170 nM | Kd (HLA-A*01:01; [18]): ≥ 70400 nM | Kd (HLA-A*30:02; [18]): ≥ 69800 nM | Kd (HLA-A*23:01; [18]): 1110 nM | Kd (HLA-A*26:01; [18]): 661 nM | Kd (HLA-A*24:02; [18]): 1470 nM

AMVRMYIFF
Kd (HLA-A*29:02; [14]): 452 nM | Kd (HLA-A*01:01; [14]): 18700 nM | Kd (HLA-A*30:02; [14]): ≥ 71100 nM | Kd (HLA-A*23:01; [14]): 214 nM | Kd (HLA-A*26:01; [14]): 7440 nM | Kd (HLA-A*24:02; [14]): 4460 nM

TTTIKPVSY
Kd (HLA-A*29:02; [14]): 47.3 nM | Kd (HLA-A*01:01; [14]): 286 nM | Kd (HLA-A*30:02; [14]): 142 nM | Kd (HLA-A*23:01; [14]): ≥ 77800 nM | Kd (HLA-A*26:01; [14]): 360 nM | Kd (HLA-A*24:02; [14]): ≥ 77600 nM

MEVTARWLWG
Kd (HLA-A*32:01; [17]): 3720 nM

IMLVYCFLGY
Kd (HLA-A*29:02; [14]): 3.05 nM | Kd (HLA-A*01:01; [14]): ≥ 31500 nM | Kd (HLA-A*30:02; [14]): 211 nM | Kd (HLA-A*23:01; [14]): ≥ 70000 nM | Kd (HLA-A*26:01; [14]): ≥ 42700 nM | Kd (HLA-A*24:02; [14]): ≥ 70300 nM

EYPIIGDEL
Kd (HLA-A*29:02; [14]): 176 nM | Kd (HLA-A*01:01; [14]): ≥ 78100 nM | Kd (HLA-A*30:02; [14]): 1330 nM | Kd (HLA-A*23:01; [14]): 16200 nM | Kd (HLA-A*26:01; [14]): ≥ 77900 nM | Kd (HLA-A*24:02; [14]): 14100 nM

TMFKIVYSL
Kd (HLA-A*32:01; [11]): 0.915 nM

LCEEGKVCY
Kd (HLA-A*29:02; [19]): ≥ 45400 nM | Kd (HLA-A*01:01; [19]): 7830 nM | Kd (HLA-A*30:02; [19]): 14200 nM | Kd (HLA-A*23:01; [19]): ≥ 31600 nM | Kd (HLA-A*26:01; [19]): ≥ 77900 nM | Kd (HLA-A*24:02; [19]): ≥ 77500 nM

VYMPASWVM
Kd (HLA-A*29:02; [14]): 14700 nM | Kd (HLA-A*01:01; [14]): ≥ 78100 nM | Kd (HLA-A*30:02; [14]): ≥ 20900 nM | Kd (HLA-A*23:01; [14]): 5420 nM | Kd (HLA-A*26:01; [14]): ≥ 77900 nM | Kd (HLA-A*24:02; [14]): 12600 nM

AILGVLATL
Kd (HLA-B*07:02; [20]): 12700 nM | Kd (HLA-B*15:01; [20]): 18500 nM | Kd (HLA-A*69:01; [20]): 238 nM | Kd (HLA-A*02:01 [3]; [20]): 316 nM

RGVNFAEGV
IC50 (HLA-A*02:01 [2]; [13]): 32900 nM

SLGGHTVWQ
Kd (HLA-A*69:01; [21]): ≥ 20000 nM | Kd (HLA-A*02:01 [3]; [21]): 8000 nM

CTFLLNKEMY
Kd (HLA-A*29:02; [14]): 789 nM | Kd (HLA-A*01:01; [14]): 793 nM | Kd (HLA-A*30:02; [14]): 412 nM | Kd (HLA-A*23:01; [14]): ≥ 70000 nM | Kd (HLA-A*26:01; [14]): 9380 nM | Kd (HLA-A*24:02; [14]): ≥ 70300 nM

STGNYNYKY
Kd (HLA-A*29:02; [14]): 37.2 nM | Kd (HLA-A*11:01 [5]): 198 nM | Kd (HLA-A*01:01; [14]): 388 nM | Kd (HLA-A*30:02; [14]): 24.5 nM | Kd (HLA-A*23:01; [14]): ≥ 77800 nM | Kd (HLA-A*26:01; [14]): 15600 nM | Kd (HLA-A*24:02; [14]): ≥ 77600 nM | Kd (HLA-A*03:01 [6]): ≥ 20400 nM | Kd (HLA-A*31:01): ≥ 77900 nM | Kd (HLA-A*68:01): 1600 nM | Kd (HLA-A*33:01): ≥ 77700 nM
